The source of these data is patent US11306137B2, “Antibody binding agents that bind Acinetobactor and uses thereof” (priority 2015, dated 2022).

Test [1] deals with A. baumannii HUMC1. Put plainly: Lethal bloodstream (i.v. tail-vein) infection model, survival. It is filed as in vivo, mice. The note with it: i.v. infection; treated i.p. at 1 hr post-infection; C8 150 μg, colistin 0.0125 mg/kg; FIG. 7D.
For test [2], the system named is A. baumannii HUMC1. As to the kind of experiment: Effects of antibody on colistin MIC. It is filed as cell-based. Here is the method: The minimum inhibitory concentration (MIC) of colistin for A. baumannii HUMC1 was determined in congruence with standard CLSI methodologies. In brief, A. baumannii HUMC1 was passaged in Mueller Hinton II (MH-II) Broth for 3 hr at 37° C. with shaking then diluting to 5×10^5 CFUs/mL. Colistin was serially diluted across rows of a 96-well plate with 0.1, 1, or 10 μg/mL C8 MAb, which was incubated at 37° C. for 24 hr. The MIC value was read as the lowest concentration that prevented visible growth of bacteria.

In test [3] the test system is A. baumannii HUMC1. Put plainly: Lethal bloodstream (i.v. tail-vein) infection model, survival. The format is in vivo, mice. The note with it: 2×10^7 HUMC1 i.v.; treated once i.v., approximately 20 μg. Here is the method: To determine if C8 could treat, inhibit and/or prevent A. baumannii induced sepsis, mice were infected i.v. via the tail-vein with 2×10^7 hyper-virulent A. baumannii HUMC1 and were treated once i.v. with either protein-G purified C8 mAb (approximately 10 or 20 μg doses) or an isotype-control antibody in a saline buffer. […] In a second experiment, mice were similarly infected and the C8 MAb was administered once i.v. in saline buffer at a low (5 μg) and very low (0.5 μg) dose.
Male C3HeB/Fe mice (Jackson Labs) between the ages of 7-10 wk were used for all experiments. All animal work was conducted following approval by the Institutional Animal Use and Care Committee at the University of Southern California, in compliance with the recommendations in the Guide for the Care and Use of Laboratory Animals of the National Institutes of Health.
For the bloodstream infection model, mice were infected intravenously via the tail-vein with designated inocula of A. baumannii isolates. An oropharyngeal model of aspiration pneumonia that recapitulates hospital- or ventilator-associated pneumonia (VAP) relevant to ICU populations was used. In brief, mice were sedated with isoflurane, hung by their maxillary incisors, tongues held to prevent swallowing, and 50 μL of bacterial inocula was placed in the trachea to allow inoculation of the organisms into the lungs by reflexive aspiration.

Test [4] concerns A. baumannii cell surface. Put plainly: Flow cytometry binding to A. baumannii cell surface. The note with it: HUMC1 strain. The protocol: Hybridoma pre-clones were selected for subcloning based on bacterial cell surface reactivity by flow cytometry. Briefly, A. baumannii was passaged to log phase, stained with the bacterial dye SYTO BC (LifeTech #B7277), then stained with pre-clone supernatant from 96-well plates at 4° C., rinsed, and counter-stained with CF 647-conjugated goat anti-mouse IgG (Sigma-Aldrich, #SAB4600182). Control samples were stained with mouse IgG1 isotype control mAb (R&D Systems, #MAB002). Percent positivity was determined by flow cytometry.
Hybridoma cell lines were propagated in 96-well flat-bottom plates in DMEM-20%, and supernatants were harvested from wells for initial flow cytometry screening to identify antibodies that bound to intact bacteria. In brief, A. baumannii isolates were passaged to log phase, stained with the bacterial dye SYTO BC (LifeTech #B7277), and incubated for 1 hr with undiluted supernatants collected from 96-well plates at 4° C. Cells were washed and counter-stained with a secondary antibody, CF647-conjugated goat anti-mouse IgG (Sigma-Aldrich, #SAB4600182). Control samples were stained with a mouse IgG1 isotype control MAb (R&D Systems, #MAB002) as a negative control, and mouse polyclonal HUMC1-immune serum as a positive control for bacterial binding. Hybridomas that tested positive for bacterial binding were subcloned by limiting dilution into 96-well plates to ensure clonality, expanded, and retested to confirm bacterial binding.
(In general: A flow cytometer gives signals particle by particle.)

Test [5] addresses T1, outer membrane protein A (OmpA) of A. baumannii (A. baumannii, UniProt Q6RYW5 20-356).
T1 construct: also called whole OmpA
T1 sequence: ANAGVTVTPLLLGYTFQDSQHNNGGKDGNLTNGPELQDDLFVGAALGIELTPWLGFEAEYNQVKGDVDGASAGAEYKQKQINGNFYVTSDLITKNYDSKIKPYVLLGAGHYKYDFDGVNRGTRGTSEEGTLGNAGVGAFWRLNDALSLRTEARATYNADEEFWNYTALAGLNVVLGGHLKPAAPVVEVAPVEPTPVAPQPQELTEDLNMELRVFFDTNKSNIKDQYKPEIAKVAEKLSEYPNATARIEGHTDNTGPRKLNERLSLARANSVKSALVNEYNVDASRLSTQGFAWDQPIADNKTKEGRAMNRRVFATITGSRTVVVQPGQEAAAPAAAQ
As to the kind of experiment: ELISA with whole OmpA as target (data not shown). (An ELISA detects its analyte on a solid surface through an enzyme-linked reagent.)

In test [6] the target is T2, DHFR-3Loop fusion protein (mouse (DHFR part)); A. baumannii (OmpA …).
T2 construct: also called DHFR-3 Loop protein; recombinant DHFR-3Loop protein
T2 chain: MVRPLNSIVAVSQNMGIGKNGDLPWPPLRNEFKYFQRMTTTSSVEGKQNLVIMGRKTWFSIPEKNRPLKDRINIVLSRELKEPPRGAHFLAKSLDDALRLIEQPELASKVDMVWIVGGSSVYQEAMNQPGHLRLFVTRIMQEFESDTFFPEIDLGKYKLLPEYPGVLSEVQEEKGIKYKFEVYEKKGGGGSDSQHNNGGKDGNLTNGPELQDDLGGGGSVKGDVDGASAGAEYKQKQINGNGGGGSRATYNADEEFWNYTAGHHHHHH
As to the kind of experiment: ELISA with DHFR-3Loop as target (data not shown).

Turning to colistin, in the test with A. baumannii HUMC1 [1], the “survival, delayed treatment (monotherapy)” value was “completely ineffective”. For the same molecule, the “MIC of colistin against HUMC1” value with A. baumannii HUMC1 [2] (colistin alone), with A. baumannii HUMC1 [2] (in the presence of C8 at 0.1 μg/mL), in the test on A. baumannii HUMC1 [2] (in the presence of C8 at 1 μg/mL) and in the test on A. baumannii HUMC1 [2] (in the presence of C8 at 10 μg/mL) was 2 µg/mL throughout.

B1: R2D2: mouse IgM monoclonal antibody from hybridoma R2D2 (ATCC PTA-122178); light chain SEQ ID NO:28, heavy chain SEQ ID NO:29 (antibody, listed as Mus musculus)
heavy: QVQLKQSGPGLVQPSQSLSITCTVSGFSLTSYGVHWVRQSPGKGLEWLGVIWSGGSTDYNAAFISRLSISKDNSKSQVFFKMNSLQANDTAIYYCARRRRSTAMDYWGQGTSVTVSSESQSFPN
light: DIGMTQSXSPQDMSVGPKVTMSSKCRKSLLNSRNQKKYLTSDQQKPGQYTKSLGDFASISESRVTDRFIGSGSGTDLPLGWGILPPLPLADYFCQQHYSTP
modifications: not fully specified; (8)..(8) Xaa can be any naturally occurring amino acid
In the case of B1, in the test with A. baumannii HUMC1 [3], the protection against infection result is reported as “protective against infection”. Further, the “binding to the cell surface of A. baumannii by flow cytometry” value in test [4] was “specifically bound”.

B2: 9.1C8 monoclonal antibody (antibody, V domains shown)
VH: EVQLQQSGPELVKPGASVKISCKASGYSFTGYTMNWVKQSHGKSLEWIGRINPYNGDSFYNQKFKGKATLTVDKSSNIAHMEFLSLTSEDSAVYYCGRSGDGPWFAYWGQGTLVTVSA
VL: LPLSLPVSLGDQASISCRSSQSIVHNNGNTYLEWYLQKPGQSPKLLIYKVSNRFSGVPDRFSGSGSGTDFTLKISRVEAEDLGVYYCFQGSHVPLTFGAGTKLEIKGSRS
notes: also called C8 mAb; C8 MAb
As to B2, the binding result in test [5] and in test [6] was “no binding” in each case.

B3: X1 monoclonal antibody (antibody, V domains shown)
VH: EVQLQQSGPELVKPGASVKISCKASGYSFTGYFMNWVKQSHGKSLEWIGRINPYNGDTFYNQKFKGKATLTVDKSSSTAHMELRSLTSEDSAVYYCARLNYRGAYWGQGTLVTVSA
VL: LPLSLPVSLGDQASISCRSSQSIVHNNGNTYLEWYLQKPGQSPKLLIYKVSNRFSGVPDRFSGSGSGTDFTLKISRVEAEDLGVYYCFQGSHVPLTFGAGTKLEIKGSRS
notes: also called X1 mAb
For B3, the binding result in test [5] and in test [6] was “no binding” each time.
